Test results reported in patent US20100086958A1, “NOVEL ENZYME” (priority 2008, published 2010).

How the values were obtained:
[1] = Steady state kinetics for formate oxidation; type: biochemical
Method: (§1) BcenFDH1 (Bsp184FDH) and BspFDH2 (Bsp383FDH) catalyzed oxidation of formate to CO2 was monitored by UV/Vis spectrophotometry in a 96-well plate format. A series of eight solutions of formate (0-200 mM) were prepared by successive dilutions of a stock solution of 0.5 M sodium formate in 0.1 M sodium phosphate buffer, pH 7.0. From this series, 170 μL was transferred into wells of the 96-well plate. 10 μL of the FDHs from a stock solution (64.1 μM for BcenFDH1 (Bsp184FDH) and 78.0 μM for BspFDH2 (Bsp383FDH)) were added into each well and equilibrated for 3 min at 30° C. The reaction was initiated by addition of 20 μL of NAD^+ or NADP^+ solution from a freshly prepared stock (10 mM) using an 8-channel pipette. The plate was then immediately placed into the plate reader. The plate was shaken for 5 s to ensure thorough mixing, and then time-based measurements were recorded every 15 s for 10 min. The rate of formate oxidation was calculated using an extinction coefficient of 3.38 mM^−1 (for 200 μL), which was determined using NADH standards. Km and Vmax values were obtained by non-linear regression to the Michaelis-Menten equation (Eq.1 below) using Origin v7 (Microcal Software Inc.).

[2] = Steady state kinetics for NAD^+ (FDH-catalysed formate oxidation); type: biochemical; details: cofactor NAD^+, 0.18M formate
Method: as §1
(§2) Similar procedure were used for determination of Michaelis-Menten parameters for NAD^+ and NADP^+. A series of eight solutions of cofactor (0-75 mM) were prepared by successive dilutions of stock solutions. […] of sodium formate solutions (180 mM in well) were transferred into wells of the 96-well plate. 10 μL of the FDHs from a stock solution (64.1 μM for BcenFDH1 (Bsp184FDH) and 78.0 μM for BspFDH2 (Bsp383FDH)) were added into each well and equilibrated for 3 min at 30° C. The reaction was initiated by addition of 20 μL of NAD^+ or NADP^+ solutions using an 8-channel pipette. The plate was then immediately placed into the plate reader. The plate was shaken for 5 s to ensure thorough mixing, and then time-based measurements were recorded every 15 s for 10 min. The rate of formate oxidation was calculated using an extinction coefficient of 3.38 mM^−1 (for 200 μL), which was determined using NADH standards. Km and Vmax values were obtained by non-linear regression to the Michaelis-Menten equation as before.

[3] = pH profile determination of FDH-catalysed formate oxidation; type: biochemical; details: pHs as low 4 or as high as 10.5
Method: The pH profiles for BcenFDH1 (Bsp184FDH) and BspFDH2 (Bsp383FDH) catalyzed formate oxidation, shown in FIG. 13(a) and (b), were investigated by Uv/Vis spectrophotometry in a 96-well plate format. […] From this series, 170 μL was transferred into wells of the 96-well plate. 10 μL of the FDHs from a stock solution solution (64.1 μM for BcenFDH1 (Bsp184FDH) and 78.0 μM for BspFDH2 (Bsp383FDH)) were added into each well and equilibrated for 3 min at 30° C. The reaction was initiated by addition of 20 μL of NAD^+ solution from a freshly prepared stock (10 mM) using an 8-channel pipette. The plate was then immediately placed into the plate reader. The plate was shaken for 5 s to ensure thorough mixing, and then time-based measurements were recorded every 15 s for 10 min. The rate of formate oxidation was calculated using an extinction coefficient of 3.38 mM^−1 (for 200 μL).

[4] = Steady state kinetics for NADP^+ (FDH-catalysed formate oxidation); type: biochemical
Method: as §1, §2

[5] = Thermal stability study (remaining activity after incubation); type: physicochemical
Method: FIGS. 19 and 20—show the effect of temperature on the stability of the Bsp184FDH and Bsp383FDH enzymes. In FIG. […] In FIG. 20 (1) Bsp184FDH (2.1 mg/mL) and (2) Bsp383FDH (1.5 mg/mL) were incubated at 60° C. and 70° C. for 48 hours period in a similar way. Remaining activities were assayed under standard assay conditions and were expressed as the percentage of activities.
Thermal stability for purified wild-type BcenFDH1 (Bsp184FDH) and BspFDH2 (Bsp383FDH) catalyzed formate oxidation were investigated by Uv/V is spectrophotometry in a 96-well plate format. The results are illustrated in FIGS. 19 and 20. […] In addition, time based-thermal stability for purified wild-type BcenFDH1 (Bsp184FDH) and BspFDH2 (Bsp383FDH) catalyzed formate oxidation were also investigated at 60° C. and 70° C. over 48 hours in a similar way. The samples were spun down briefly to remove any precipitations before use. 10 μL of heat-treated BcenFDH1 and BspFDH2 were added into each well and equilibrated for 3 min at 30° C. after adding 170 μL of 200 mM sodium formate (dissolving in 50 mM sodium phosphate buffer, pH 7.0.) The reaction was initiated by addition of 20 μL of NADP^+ solution from a freshly prepared stock of 20 mM using an 8-channel pipette. The plate was then immediately placed into the plate reader. The plate was shaken for 5 seconds to ensure thorough mixing. Time-based measurements were recorded every 10 s for 10 min. The rate of formate oxidation was calculated using the absorption coefficient of 3.38 mM^−1 (for 200 μL).

[6] = Assay of enzyme activity (specific activity, U/mg); type: biochemical; details: unit = μmol formate oxidized per min in the presence of co-factor; This work
Method: The reaction was initiated by addition of NAD^+. The total volume of the reaction mixture was 1 mL. Specific activity (U/mg enzyme) was defined as number of μmols of product formed per mg enzyme per minute.

B1: Bsp184FDH: wild type FDH from Burkholderia cenocepacia PC184, Seq ID No: 2, C-terminal His-tagged (protein, listed as Burkholderia cenocepacia)
chain: MATVLCVLYPDPVDGYPPRYVRDTIPVITHYADGQTAPTPAGPPGFRPGELVGSVSGALGLRGYMEAHGHTLIVTSDKDGPDSEFERRLPEADVVISQPFWPAYLSAERIARAPKLKLALTAGIGSDHVDLDAAARARITVAEVTGSNSISVAEHVVMTTLALVRNYLPSHAVAQQGGWNIADCVSRSYDVEGMHFGTVGAGRIGLAVLRRLQPFGLQLHYTQRHRLDASIEQALALTYHADVASLASAVDIVNLQIPLYPSTEHLFDAAMIARMKRGAYLINTARAKLVDRDAVVNALTSGHLAGYGGDVWFPQPAPADHPWRTMPFNGMTPHISGTSLSAQARYAAGTLEILQCWFDGRPIRNEYLIVDGGTLAGTGAQSYRLT
modifications: C-terminal His tag
kcat ([1]; formate oxidation with NADP^+): 2.2073 ± 0.2553 s⁻¹
Km ([1]; formate oxidation with NAD^+): 99.2 ± 7.11 mM
kcat ([1]; formate oxidation with NAD^+): 0.34 ± 0.0123 s⁻¹
Km [2]: 15 ± 4 mM
kcat NAD^+ [2]: 0.567 ± 0.12 s⁻¹
activity at extreme pH [3]: highly active
Km ([4]; cofactor NADP^+, 0.18M formate): 1.1 ± 0.1 mM
kcat NADP^+ ([4]; cofactor NADP^+, 0.18M formate): 3.07 ± 0.083 s⁻¹
cofactor preference for NADP^+, times greater than those of known FDHs such as CmetFDH ([4]; relative to CmetFDH): 10^6 times
temperature at which the enzymes denature [5]: 80 °C
activity lost upon incubation ([5]; 55° C. for 2 hours): no activity was lost
stability at room temperature ([5]; room temperature for weeks): stable
activity with NADP^+ [6]: 3.12 U/mg
activity with NAD^+ [6]: 0.48 U/mg
